For two substances, Kd results are on record in PMC11481384.

In the test the target is Keap1 Kelch domain (amino acid residues 309 to 624) (human) (UniProt Q14145). In words: ITC; MicroCal ITC200, 25 °C, 20 mM Tris‐HCl and 150 mM NaCl; Kelch and synthetic PGAM5 peptides; 19 injections at 2‐min intervals. On the technique in general: In ITC the heat of successive injections is recorded.

One may read the Kd as the constant that tells how readily two partners part at equilibrium. High values mean a looser complex, low ones a tighter complex.

Keap1 Kelch domain (amino acid residues 309 to 624) (human), sequence (Q14145 309-624): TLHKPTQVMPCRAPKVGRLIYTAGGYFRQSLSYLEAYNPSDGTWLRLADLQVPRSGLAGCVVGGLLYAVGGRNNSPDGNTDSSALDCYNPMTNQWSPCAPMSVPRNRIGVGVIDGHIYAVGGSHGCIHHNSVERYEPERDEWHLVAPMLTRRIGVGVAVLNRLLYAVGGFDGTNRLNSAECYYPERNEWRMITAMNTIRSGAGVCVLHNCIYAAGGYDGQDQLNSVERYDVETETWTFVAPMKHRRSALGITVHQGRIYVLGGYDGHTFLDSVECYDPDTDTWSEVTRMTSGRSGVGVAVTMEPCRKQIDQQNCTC

As to “E79A mutant based on the PGAM5 20‐mer peptide”, the Kd amounted to 37.7 µM. “PGAM5 20‐mer peptide (based on the ESGE motif)” gave a Kd of 0.107 µM.
